Assay results: patent US20230051304A1 (Regeneron, published 2023)
Read-outs that look alike come from different tables or passages of the source.

Assays:
[1] = target: murine IL12 receptor complex (IL12Rβ1 and IL12Rβ2) (mouse) (UniProt Q60837); assay: cell-based or functional assay
[2] = target: murine IL12 receptor complex (IL12Rβ1 and IL12Rβ2) (mouse) (UniProt Q60837); assay: cell-based or functional assay; remark: listed apart in the source
[3] = target: murine IL12 receptor complex (IL12Rβ1 and IL12Rβ2) (mouse) (UniProt Q60837); assay: cell-based or functional assay; remark: listed apart in the source
[4] = target: T1, murine IL12 receptor complex (IL12Rβ1 and IL12Rβ2) (mouse, UniProt Q60837 20-738; P97378 24-874); assay: flow cytometry on activated primary mouse T cells (CD25+ CD8+ CD90.2+), anti-human Fc detection, MFI
T1 construct: whole, on cells; also called IL12 receptors beta 1 (IL12Rβ1) and beta 2 (IL12Rβ2); IL12Rb1 and IL12Rb2
T1 sequence (Q60837 20-738, chain 1 of 2): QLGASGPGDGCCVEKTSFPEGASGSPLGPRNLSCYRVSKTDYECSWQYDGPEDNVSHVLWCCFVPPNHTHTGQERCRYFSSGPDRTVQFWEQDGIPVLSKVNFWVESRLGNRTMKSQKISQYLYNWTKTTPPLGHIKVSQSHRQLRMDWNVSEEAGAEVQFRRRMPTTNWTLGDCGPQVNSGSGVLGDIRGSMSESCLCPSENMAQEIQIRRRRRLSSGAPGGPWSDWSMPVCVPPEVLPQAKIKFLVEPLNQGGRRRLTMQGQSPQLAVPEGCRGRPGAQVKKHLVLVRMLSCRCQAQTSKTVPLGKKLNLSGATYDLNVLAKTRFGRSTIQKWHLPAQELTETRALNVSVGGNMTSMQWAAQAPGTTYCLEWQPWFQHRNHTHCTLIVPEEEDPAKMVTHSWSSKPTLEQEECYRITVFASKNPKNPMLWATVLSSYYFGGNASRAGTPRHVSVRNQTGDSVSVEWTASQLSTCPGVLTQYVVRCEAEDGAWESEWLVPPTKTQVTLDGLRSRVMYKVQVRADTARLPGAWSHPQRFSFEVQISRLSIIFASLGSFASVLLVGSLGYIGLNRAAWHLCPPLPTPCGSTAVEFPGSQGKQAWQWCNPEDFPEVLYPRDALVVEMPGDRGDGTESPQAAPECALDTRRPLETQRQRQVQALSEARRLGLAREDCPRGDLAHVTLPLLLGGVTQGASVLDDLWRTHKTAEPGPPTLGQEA
T1 sequence (P97378 24-874, chain 2 of 2): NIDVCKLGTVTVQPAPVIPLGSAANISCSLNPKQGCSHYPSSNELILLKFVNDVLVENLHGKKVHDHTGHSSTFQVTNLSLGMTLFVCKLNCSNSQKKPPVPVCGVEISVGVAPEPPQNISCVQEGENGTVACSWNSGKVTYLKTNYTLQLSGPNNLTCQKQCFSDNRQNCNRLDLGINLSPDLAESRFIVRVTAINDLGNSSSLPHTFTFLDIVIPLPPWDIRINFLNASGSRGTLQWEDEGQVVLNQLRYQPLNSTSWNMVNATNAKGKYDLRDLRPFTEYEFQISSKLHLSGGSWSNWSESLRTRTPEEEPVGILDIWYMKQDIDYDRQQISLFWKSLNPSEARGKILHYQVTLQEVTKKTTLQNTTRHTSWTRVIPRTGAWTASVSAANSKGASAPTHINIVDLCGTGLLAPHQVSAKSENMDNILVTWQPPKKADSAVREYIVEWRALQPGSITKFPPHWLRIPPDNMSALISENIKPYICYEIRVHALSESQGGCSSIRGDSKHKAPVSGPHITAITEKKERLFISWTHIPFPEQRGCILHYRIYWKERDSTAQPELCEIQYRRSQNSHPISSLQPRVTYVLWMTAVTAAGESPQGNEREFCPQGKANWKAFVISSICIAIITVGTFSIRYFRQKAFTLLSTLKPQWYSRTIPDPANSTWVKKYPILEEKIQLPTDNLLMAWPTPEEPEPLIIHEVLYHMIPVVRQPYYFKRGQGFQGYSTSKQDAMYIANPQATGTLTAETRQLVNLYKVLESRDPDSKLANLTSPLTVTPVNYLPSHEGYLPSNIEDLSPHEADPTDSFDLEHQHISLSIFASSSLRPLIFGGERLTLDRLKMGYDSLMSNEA
Description: Spleens were harvested from C57BL/6 mice and dissociated manually. Splenocytes were stimulated by culturing for 48 hours in RPMI+10% FBS+2 mM L-glutamine/Pen/Strep in the presence of anti-CD3 and anti-CD28 activation beads (Thermo/11456D) at a 1:3 (beads:splenocytes) ratio and in the presence of 30 U/mL human IL-2 (proleukin). […] Cells were washed once before plating 200,000 cells per well in a 96-well plate and staining indicated concentration of test IL12-Fc fusion proteins or variant molecules for 2 hours on ice. Cells were washed twice before staining for the Fc portion using an ahuFC antibody (Jackson Immuno 109-136-170). Data was acquired using a BD LSRFortessa™ X-20 instrument. Data plots represent geometric mean fluorescence intensity (MFI) of the ahuFC signal from CD25+, CD8+CD90.2+ T cells.

Sequence of murine IL12 receptor complex (IL12Rβ1 and IL12Rβ2) (mouse) (Q60837 20-738, chain 1 of 2): as the sequence (Q60837 20-738, chain 1 of 2) above
Sequence of murine IL12 receptor complex (IL12Rβ1 and IL12Rβ2) (mouse) (P97378 24-874, chain 2 of 2, further chain): as the sequence (P97378 24-874, chain 2 of 2) above

B1: recombinant mIL12 (ligand, mouse)
chain 1: RVIPVSGPARCLSQSRNLLKTTDDMVKTAREKLKHYSCTAEDIDHEDITRDQTSTLKTCLPLELHKNESCLATRETSSTTRGSCLPPQKTSLMMTLCLGSIYEDLKMYQTEFQAINAALQNHNHQQIILDKGMLVAIDELMQSLNHNGETLRQKPPVGEADPYRVKMKLCILLHAFSTRVVTINRVMGYLSSA
chain 2: MWELEKDVYVVEVDWTPDAPGETVNLTCDTPEEDDITWTSDQRHGVIGSGKTLTITVKEFLDAGQYTCHKGGETLSHSHLLLHKKENGIWSTEILKNFKNKTFLKCEAPNYSGRFTCSWLVQRNMDLKFNIKSSSSSPDSRAVTCGMASLSAEKVTLDQRDYEKYSVSCQEDVTCPTAEETLPIELALEARQQNKYENYSTSFFIRDIIKPDPPKNLQMKPLKNSQVEVSWEYPDSWSTPHSYFSLKFFVRIQRKKEKMKETEEGCNQKGAFLVEKTSTEVQCKGGNVCVQAQDRYYNSSCSKWACVPCRVRS
B1 was tested, and the EC50 (M); STAT3-Luc reporter, CTLL2/STAT3-Luc cells [1] was 3.46e-11 M, the Fold induction at 20 nM; STAT3-Luc reporter, CTLL2/STAT3-Luc cells [1] was 18.8 fold and the Max fold induction; STAT3-Luc reporter, CTLL2/STAT3-Luc cells [1] was 19.1 fold. For the same binder, the EC50 (M); STAT3-Luc reporter, CTLL2/STAT3-Luc cells [2] was 5.56e-11 M, the Fold induction at 6.25 nM; STAT3-Luc reporter, CTLL2/STAT3-Luc cells [2] was 12.2 fold and the Max fold induction; STAT3-Luc reporter, CTLL2/STAT3-Luc cells [2] was 12.4 fold. The EC50 (M); STAT3-Luc reporter, CTLL2/STAT3-Luc cells [3] was 3.71e-10 M and the Max fold induction; STAT3-Luc reporter, CTLL2/STAT3-Luc cells [3] was 17.8 fold.

B2: Fc-IL12Rβ1(D1)-p40-p35 x Fc (Fc fusion)
chain 1: ESKYGPPCPPCPAPPVAGPSVFLFPPKPKDTLMISRTPEVTCVVVDVSQEDPEVQFNWYVDGVEVHNAKTKPREEQFNSTYRVVSVLTVLHQDWLNGKEYKCKVSNKGLPSSIEKTISKAKGQPREPQVYTLPPSQEEMTKNQVSLSCAVKGFYPSDIAVEWESNGQPENNYKTTPPVLDSDGSFFLVSRLTVDKSRWQEGNVFSCSVMHEALHNRFTQKSLSLSPGK
chain 2: ESKYGPPCPPCPAPPVAGPSVFLFPPKPKDTLMISRTPEVTCVVVDVSQEDPEVQFNWYVDGVEVHNAKTKPREEQFNSTYRVVSVLTVLHQDWLNGKEYKCKVSNKGLPSSIEKTISKAKGQPREPQVYTLPPSQEEMTKNQVSLWCLVKGFYPSDIAVEWESNGQPENNYKTTPPVLDSDGSFFLYSRLTVDKSRWQEGNVFSCSVMHEALHNHYTQKSLSLSLGKGGGGSGGGGSGGGGSQLGASGPGDGCCVEKTSFPEGASGSPLGPRNLSCYRVSKTDYECSWQYDGPEDNVSHVLWCCFVPPNHTHTGQERCRYFSSGPDRTVQFWEQDGIPVLSKVNFWVESRLGNRTMKSQKISQYLYNWTKTTPPLGGGGSGGGGSGGGGSMWELEKDVYVVEVDWTPDAPGETVNLTCDTPEEDDITWTSDQRHGVIGSGKTLTITVKEFLDAGQYTCHKGGETLSHSHLLLHKKENGIWSTEILKNFKNKTFLKCEAPNYSGRFTCSWLVQRNMDLKFNIKSSSSSPDSRAVTCGMASLSAEKVTLDQRDYEKYSVSCQEDVTCPTAEETLPIELALEARQQNKYENYSTSFFIRDIIKPDPPKNLQMKPLKNSQVEVSWEYPDSWSTPHSYFSLKFFVRIQRKKEKMKETEEGCNQKGAFLVEKTSTEVQCKGGNVCVQAQDRYYNSSCSKWACVPCRVRSGGGGSGGGGSGGGGSRVIPVSGPARCLSQSRNLLKTTDDMVKTAREKLKHYSCTAEDIDHEDITRDQTSTLKTCLPLELHKNESCLATRETSSTTRGSCLPPQKTSLMMTLCLGSIYEDLKMYQTEFQAINAALQNHNHQQIILDKGMLVAIDELMQSLNHNGETLRQKPPVGEADPYRVKMKLCILLHAFSTRVVTINRVMGYLSSA
notes: Receptor-masked monovalent murine IL12; also called Fc x Fc-mIL12Rb1(D1)-mIL12p40-p35
B2: binds [4].

B3: Fc-p40-p35 x Fc-IL12Rβ2(D1) (Fc fusion)
chain 1: ESKYGPPCPPCPAPPVAGPSVFLFPPKPKDTLMISRTPEVTCVVVDVSQEDPEVQFNWYVDGVEVHNAKTKPREEQFNSTYRVVSVLTVLHQDWLNGKEYKCKVSNKGLPSSIEKTISKAKGQPREPQVYTLPPSQEEMTKNQVSLSCAVKGFYPSDIAVEWESNGQPENNYKTTPPVLDSDGSFFLVSRLTVDKSRWQEGNVFSCSVMHEALHNRFTQKSLSLSPGKGGGGSGGGGSGGGGSNIDVCKLGTVTVQPAPVIPLGSAANISCSLNPKQGCSHYPSSNELILLKFVNDVLVENLHGKKVHDHTGHSSTFQVTNLSLGMTLFVCKLNCSNSQKKPPVPVCGVEISVGV
chain 2: ESKYGPPCPPCPAPPVAGPSVFLFPPKPKDTLMISRTPEVTCVVVDVSQEDPEVQFNWYVDGVEVHNAKTKPREEQFNSTYRVVSVLTVLHQDWLNGKEYKCKVSNKGLPSSIEKTISKAKGQPREPQVYTLPPSQEEMTKNQVSLWCLVKGFYPSDIAVEWESNGQPENNYKTTPPVLDSDGSFFLYSRLTVDKSRWQEGNVFSCSVMHEALHNHYTQKSLSLSLGKGGGGSGGGGSGGGGSMWELEKDVYVVEVDWTPDAPGETVNLTCDTPEEDDITWTSDQRHGVIGSGKTLTITVKEFLDAGQYTCHKGGETLSHSHLLLHKKENGIWSTEILKNFKNKTFLKCEAPNYSGRFTCSWLVQRNMDLKFNIKSSSSSPDSRAVTCGMASLSAEKVTLDQRDYEKYSVSCQEDVTCPTAEETLPIELALEARQQNKYENYSTSFFIRDIIKPDPPKNLQMKPLKNSQVEVSWEYPDSWSTPHSYFSLKFFVRIQRKKEKMKETEEGCNQKGAFLVEKTSTEVQCKGGNVCVQAQDRYYNSSCSKWACVPCRVRSGGGGSGGGGSGGGGSRVIPVSGPARCLSQSRNLLKTTDDMVKTAREKLKHYSCTAEDIDHEDITRDQTSTLKTCLPLELHKNESCLATRETSSTTRGSCLPPQKTSLMMTLCLGSIYEDLKMYQTEFQAINAALQNHNHQQIILDKGMLVAIDELMQSLNHNGETLRQKPPVGEADPYRVKMKLCILLHAFSTRVVTINRVMGYLSSA
notes: Receptor-masked monovalent murine IL12; also called hIgG4s(HoleStar)-mIL12Rb2(D1) x hIgG4s(Knob)-mIL12p40-p35
B3: binds [4].

B4: Fc-p40-p35 x Fc-IL12Rβ1(D1) (Fc fusion)
chain 1: ESKYGPPCPPCPAPPVAGPSVFLFPPKPKDTLMISRTPEVTCVVVDVSQEDPEVQFNWYVDGVEVHNAKTKPREEQFNSTYRVVSVLTVLHQDWLNGKEYKCKVSNKGLPSSIEKTISKAKGQPREPQVYTLPPSQEEMTKNQVSLSCAVKGFYPSDIAVEWESNGQPENNYKTTPPVLDSDGSFFLVSRLTVDKSRWQEGNVFSCSVMHEALHNRFTQKSLSLSPGKGGGGSGGGGSGGGGSQLGASGPGDGCCVEKTSFPEGASGSPLGPRNLSCYRVSKTDYECSWQYDGPEDNVSHVLWCCFVPPNHTHTGQERCRYFSSGPDRTVQFWEQDGIPVLSKVNFWVESRLGNRTMKSQKISQYLYNWTKTTPPL
chain 2: B3 chain 2
notes: Receptor-masked monovalent murine IL12; also called hIgG4s(HoleStar)-mIL12Rb1(D1) x hIgG4s(Knob)-mIL12p40-p35
B4: binds [4].
